Reference: patent US20240132559

Experiments:
ZF16-MQ1 (synthetic) = ZF16-MQ1 (synthetic) (UniProt P15840); experiment: cell_activity; settings: LL2 cells
ZF17-MQ1 (synthetic) = ZF17-MQ1 (synthetic) (UniProt P15840); experiment: cell_activity; settings: LL2 cells
Chain of ZF17-MQ1 (synthetic) (P15840 other isoform, or with tags, fused parts or gaps): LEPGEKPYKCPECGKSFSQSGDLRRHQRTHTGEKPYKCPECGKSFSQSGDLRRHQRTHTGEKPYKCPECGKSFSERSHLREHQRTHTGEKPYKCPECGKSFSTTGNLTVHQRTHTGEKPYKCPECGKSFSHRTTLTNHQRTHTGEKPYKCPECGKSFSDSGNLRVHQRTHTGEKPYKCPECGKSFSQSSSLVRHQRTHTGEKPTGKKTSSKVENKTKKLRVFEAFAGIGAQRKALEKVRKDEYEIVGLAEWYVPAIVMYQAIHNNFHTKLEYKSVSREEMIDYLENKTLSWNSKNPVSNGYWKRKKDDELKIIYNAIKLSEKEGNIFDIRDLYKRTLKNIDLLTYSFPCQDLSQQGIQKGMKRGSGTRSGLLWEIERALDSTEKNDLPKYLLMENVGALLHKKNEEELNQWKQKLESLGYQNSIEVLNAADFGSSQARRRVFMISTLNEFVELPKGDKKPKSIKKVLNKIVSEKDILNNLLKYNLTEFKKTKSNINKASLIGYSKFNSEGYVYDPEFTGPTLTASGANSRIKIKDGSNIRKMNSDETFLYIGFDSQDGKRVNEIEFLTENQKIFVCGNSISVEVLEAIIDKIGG

Chain of ZF16-MQ1 (synthetic) (P15840 other isoform, or with tags, fused parts or gaps): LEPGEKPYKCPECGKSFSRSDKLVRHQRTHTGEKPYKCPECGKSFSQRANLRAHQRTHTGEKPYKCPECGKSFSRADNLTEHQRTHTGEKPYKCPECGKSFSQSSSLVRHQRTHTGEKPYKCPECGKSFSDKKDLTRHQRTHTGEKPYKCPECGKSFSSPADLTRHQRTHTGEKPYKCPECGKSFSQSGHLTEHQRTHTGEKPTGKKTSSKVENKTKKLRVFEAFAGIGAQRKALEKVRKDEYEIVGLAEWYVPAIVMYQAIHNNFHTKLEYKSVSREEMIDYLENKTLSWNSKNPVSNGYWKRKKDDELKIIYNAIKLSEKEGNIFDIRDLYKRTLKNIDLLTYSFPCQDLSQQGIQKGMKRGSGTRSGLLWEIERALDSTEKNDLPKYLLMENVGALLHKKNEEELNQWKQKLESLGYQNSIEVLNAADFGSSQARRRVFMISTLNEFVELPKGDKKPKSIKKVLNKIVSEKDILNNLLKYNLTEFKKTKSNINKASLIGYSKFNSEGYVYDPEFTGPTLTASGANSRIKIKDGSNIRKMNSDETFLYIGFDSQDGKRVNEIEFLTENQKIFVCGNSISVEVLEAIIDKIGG

For mouse Myc genomic locus, the activity (% MYC mRNA reduction) (ZF16-MQ1 (synthetic)) was 74 and the activity (% MYC mRNA reduction) (ZF17-MQ1 (synthetic)) was greater than 99.9.
